According to patent US20240352136A1 (Hoffmann-La Roche, published 2024):

Target: T1, human CD25 (alpha subunit of the interleukin-2 receptor, IL2RA) (human, UniProt P01589 22-272)
T1 sequence: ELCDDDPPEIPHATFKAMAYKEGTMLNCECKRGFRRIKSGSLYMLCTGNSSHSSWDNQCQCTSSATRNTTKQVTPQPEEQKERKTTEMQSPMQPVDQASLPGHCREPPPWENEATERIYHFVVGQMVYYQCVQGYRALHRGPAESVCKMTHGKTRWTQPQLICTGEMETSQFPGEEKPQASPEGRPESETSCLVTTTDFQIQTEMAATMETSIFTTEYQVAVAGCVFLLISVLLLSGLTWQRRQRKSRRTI
Test: cell-based or functional assay

ADCC EC50, AML-22 target cells with activated NK cells, flow cytometry readout, 17 h: ~0.03 µg/mL
ADCC EC50, EOL-1 target cells with activated NK cells, flow cytometry readout, 17 h: ~0.03 µg/mL
ADCC EC50, EOL-1 target cells, flow cytometry readout: 0.03 µg/mL
B1: CD25 Mab (RG6292) (antibody, human IgG1, kappa, V domains shown)
VH: QVQLVQSGAEVKKPGSSVKVSCKASGGTFSSLAISWVRQAPGQGLEWMGGIIPIFGTANYAQKFQGRVTITADESTSTAYMELSSLRSEDTAVYYCARGGSVSGTLVDFDIWGQGTMVTVSS
VL: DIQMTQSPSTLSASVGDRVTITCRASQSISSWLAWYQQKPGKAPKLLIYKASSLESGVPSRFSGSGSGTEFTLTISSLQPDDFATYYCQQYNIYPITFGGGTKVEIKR
modifications: afucosylated Fc glycan (produced using the GlymaxX technology)
ADCC EC50, EOL-1 target cells, CytoTox-Glo luminescence readout: 0.035 µg/mL
